Reference: patent US20110166062A1 (INDIANA UNIVERSITY RESEARCH AND TECHNOLOGY, published 2011)
Bridges are numbered along the chain shown (N, C = ends). Where no end group is shown, it is not given here.

T1: GIP receptor (UniProt P48546 22-466)
T1 sequence (looked up): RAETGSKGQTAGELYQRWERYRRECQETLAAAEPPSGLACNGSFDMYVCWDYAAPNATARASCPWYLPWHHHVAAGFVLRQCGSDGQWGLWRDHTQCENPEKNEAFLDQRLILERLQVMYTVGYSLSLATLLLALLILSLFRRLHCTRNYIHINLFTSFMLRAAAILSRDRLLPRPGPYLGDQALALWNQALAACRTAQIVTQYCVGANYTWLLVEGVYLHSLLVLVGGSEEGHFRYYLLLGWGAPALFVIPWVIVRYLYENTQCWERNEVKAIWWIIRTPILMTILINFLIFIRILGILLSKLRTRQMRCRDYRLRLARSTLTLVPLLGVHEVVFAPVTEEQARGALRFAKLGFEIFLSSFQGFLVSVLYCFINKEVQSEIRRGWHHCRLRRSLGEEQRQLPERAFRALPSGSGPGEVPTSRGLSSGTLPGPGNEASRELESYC

B1: mt-143 (peptide)
peptide: YSQGTFTSDYSKYLDERRAKEFVNWLLAGGPSSGAPPPS-NH2
modifications: lactam 16-20; N-terminus assumed
SMILES: CC(C)C[C@H](NC(=O)[C@H](CC(C)C)NC(=O)[C@H](Cc1c[nH]c2ccccc12)NC(=O)[C@H](CC(N)=O)NC(=O)[C@@H](NC(=O)[C@H](Cc1ccccc1)NC(=O)[C@H](CCC(=O)O)NC(=O)[C@@H]1CCCCNC(=O)CC[C@H](NC(=O)[C@H](CC(=O)O)NC(=O)[C@H](CC(C)C)NC(=O)[C@H](Cc2ccc(O)cc2)NC(=O)[C@H](CCCCN)NC(=O)[C@H](CO)NC(=O)[C@H](Cc2ccc(O)cc2)NC(=O)[C@H](CC(=O)O)NC(=O)[C@H](CO)NC(=O)[C@@H](NC(=O)[C@H](Cc2ccccc2)NC(=O)[C@@H](NC(=O)CNC(=O)[C@H](CCC(N)=O)NC(=O)[C@H](CO)NC(=O)[C@@H](N)Cc2ccc(O)cc2)[C@@H](C)O)[C@@H](C)O)C(=O)N[C@@H](CCCNC(=N)N)C(=O)N[C@@H](CCCNC(=N)N)C(=O)N[C@@H](C)C(=O)N1)C(C)C)C(=O)N[C@@H](C)C(=O)NCC(=O)NCC(=O)N1CCC[C@H]1C(=O)N[C@@H](CO)C(=O)N[C@@H](CO)C(=O)NCC(=O)N[C@@H](C)C(=O)N1CCC[C@H]1C(=O)N1CCC[C@H]1C(=O)N1CCC[C@H]1C(=O)N[C@@H](CO)C(N)=O
B2: mt-129 (peptide)
peptide: YSQGTFTSDYSKYLDEIHQKDFIAWLMNGGPSSGAPPPS-NH2
modifications: lactam 16-20; N-terminus assumed
SMILES: CC[C@H](C)[C@H](NC(=O)[C@H](Cc1ccccc1)NC(=O)[C@H](CC(=O)O)NC(=O)[C@@H]1CCCCNC(=O)CC[C@H](NC(=O)[C@H](CC(=O)O)NC(=O)[C@H](CC(C)C)NC(=O)[C@H](Cc2ccc(O)cc2)NC(=O)[C@H](CCCCN)NC(=O)[C@H](CO)NC(=O)[C@H](Cc2ccc(O)cc2)NC(=O)[C@H](CC(=O)O)NC(=O)[C@H](CO)NC(=O)[C@@H](NC(=O)[C@H](Cc2ccccc2)NC(=O)[C@@H](NC(=O)CNC(=O)[C@H](CCC(N)=O)NC(=O)[C@H](CO)NC(=O)[C@@H](N)Cc2ccc(O)cc2)[C@@H](C)O)[C@@H](C)O)C(=O)N[C@@H]([C@@H](C)CC)C(=O)N[C@@H](Cc2c[nH]cn2)C(=O)N[C@@H](CCC(N)=O)C(=O)N1)C(=O)N[C@@H](C)C(=O)N[C@@H](Cc1c[nH]c2ccccc12)C(=O)N[C@@H](CC(C)C)C(=O)N[C@@H](CCSC)C(=O)N[C@@H](CC(N)=O)C(=O)NCC(=O)NCC(=O)N1CCC[C@H]1C(=O)N[C@@H](CO)C(=O)N[C@@H](CO)C(=O)NCC(=O)N[C@@H](C)C(=O)N1CCC[C@H]1C(=O)N1CCC[C@H]1C(=O)N1CCC[C@H]1C(=O)N[C@@H](CO)C(N)=O
B3: mt-140 (peptide)
peptide: YSQGTFTSDYSIYLDEQAAKEFVNWLLAGGPSSGAPPPS-NH2
modifications: lactam 16-20; N-terminus assumed
SMILES: CC[C@H](C)[C@H](NC(=O)[C@H](CO)NC(=O)[C@H](Cc1ccc(O)cc1)NC(=O)[C@H](CC(=O)O)NC(=O)[C@H](CO)NC(=O)[C@@H](NC(=O)[C@H](Cc1ccccc1)NC(=O)[C@@H](NC(=O)CNC(=O)[C@H](CCC(N)=O)NC(=O)[C@H](CO)NC(=O)[C@@H](N)Cc1ccc(O)cc1)[C@@H](C)O)[C@@H](C)O)C(=O)N[C@@H](Cc1ccc(O)cc1)C(=O)N[C@@H](CC(C)C)C(=O)N[C@@H](CC(=O)O)C(=O)N[C@H]1CCC(=O)NCCCC[C@@H](C(=O)N[C@@H](CCC(=O)O)C(=O)N[C@@H](Cc2ccccc2)C(=O)N[C@H](C(=O)N[C@@H](CC(N)=O)C(=O)N[C@@H](Cc2c[nH]c3ccccc23)C(=O)N[C@@H](CC(C)C)C(=O)N[C@@H](CC(C)C)C(=O)N[C@@H](C)C(=O)NCC(=O)NCC(=O)N2CCC[C@H]2C(=O)N[C@@H](CO)C(=O)N[C@@H](CO)C(=O)NCC(=O)N[C@@H](C)C(=O)N2CCC[C@H]2C(=O)N2CCC[C@H]2C(=O)N2CCC[C@H]2C(=O)N[C@@H](CO)C(N)=O)C(C)C)NC(=O)[C@H](C)NC(=O)[C@H](C)NC(=O)[C@H](CCC(N)=O)NC1=O
B4: mt-141 (peptide)
peptide: YSQGTFTSDYSKYMDEQAAKEFVNWLLAGGPSSGAPPPS-NH2
modifications: lactam 16-20; N-terminus assumed
SMILES: CSCC[C@H](NC(=O)[C@H](Cc1ccc(O)cc1)NC(=O)[C@H](CCCCN)NC(=O)[C@H](CO)NC(=O)[C@H](Cc1ccc(O)cc1)NC(=O)[C@H](CC(=O)O)NC(=O)[C@H](CO)NC(=O)[C@@H](NC(=O)[C@H](Cc1ccccc1)NC(=O)[C@@H](NC(=O)CNC(=O)[C@H](CCC(N)=O)NC(=O)[C@H](CO)NC(=O)[C@@H](N)Cc1ccc(O)cc1)[C@@H](C)O)[C@@H](C)O)C(=O)N[C@@H](CC(=O)O)C(=O)N[C@H]1CCC(=O)NCCCC[C@@H](C(=O)N[C@@H](CCC(=O)O)C(=O)N[C@@H](Cc2ccccc2)C(=O)N[C@H](C(=O)N[C@@H](CC(N)=O)C(=O)N[C@@H](Cc2c[nH]c3ccccc23)C(=O)N[C@@H](CC(C)C)C(=O)N[C@@H](CC(C)C)C(=O)N[C@@H](C)C(=O)NCC(=O)NCC(=O)N2CCC[C@H]2C(=O)N[C@@H](CO)C(=O)N[C@@H](CO)C(=O)NCC(=O)N[C@@H](C)C(=O)N2CCC[C@H]2C(=O)N2CCC[C@H]2C(=O)N2CCC[C@H]2C(=O)N[C@@H](CO)C(N)=O)C(C)C)NC(=O)[C@H](C)NC(=O)[C@H](C)NC(=O)[C@H](CCC(N)=O)NC1=O
B5: mt-144 (peptide)
peptide: YAQGTFTSDYSIYMDEQAAKEFVNWLLAGGPSSGAPPPS-NH2
modifications: lactam 16-20; N-terminus assumed
SMILES: CC[C@H](C)[C@H](NC(=O)[C@H](CO)NC(=O)[C@H](Cc1ccc(O)cc1)NC(=O)[C@H](CC(=O)O)NC(=O)[C@H](CO)NC(=O)[C@@H](NC(=O)[C@H](Cc1ccccc1)NC(=O)[C@@H](NC(=O)CNC(=O)[C@H](CCC(N)=O)NC(=O)[C@H](C)NC(=O)[C@@H](N)Cc1ccc(O)cc1)[C@@H](C)O)[C@@H](C)O)C(=O)N[C@@H](Cc1ccc(O)cc1)C(=O)N[C@@H](CCSC)C(=O)N[C@@H](CC(=O)O)C(=O)N[C@H]1CCC(=O)NCCCC[C@@H](C(=O)N[C@@H](CCC(=O)O)C(=O)N[C@@H](Cc2ccccc2)C(=O)N[C@H](C(=O)N[C@@H](CC(N)=O)C(=O)N[C@@H](Cc2c[nH]c3ccccc23)C(=O)N[C@@H](CC(C)C)C(=O)N[C@@H](CC(C)C)C(=O)N[C@@H](C)C(=O)NCC(=O)NCC(=O)N2CCC[C@H]2C(=O)N[C@@H](CO)C(=O)N[C@@H](CO)C(=O)NCC(=O)N[C@@H](C)C(=O)N2CCC[C@H]2C(=O)N2CCC[C@H]2C(=O)N2CCC[C@H]2C(=O)N[C@@H](CO)C(N)=O)C(C)C)NC(=O)[C@H](C)NC(=O)[C@H](C)NC(=O)[C@H](CCC(N)=O)NC1=O

Molecular target: glucagon receptor (UniProt P47871 26-477, limits assumed)
Assay: cell-based or functional assay

Chain of glucagon receptor (P47871 26-477 limits assumed): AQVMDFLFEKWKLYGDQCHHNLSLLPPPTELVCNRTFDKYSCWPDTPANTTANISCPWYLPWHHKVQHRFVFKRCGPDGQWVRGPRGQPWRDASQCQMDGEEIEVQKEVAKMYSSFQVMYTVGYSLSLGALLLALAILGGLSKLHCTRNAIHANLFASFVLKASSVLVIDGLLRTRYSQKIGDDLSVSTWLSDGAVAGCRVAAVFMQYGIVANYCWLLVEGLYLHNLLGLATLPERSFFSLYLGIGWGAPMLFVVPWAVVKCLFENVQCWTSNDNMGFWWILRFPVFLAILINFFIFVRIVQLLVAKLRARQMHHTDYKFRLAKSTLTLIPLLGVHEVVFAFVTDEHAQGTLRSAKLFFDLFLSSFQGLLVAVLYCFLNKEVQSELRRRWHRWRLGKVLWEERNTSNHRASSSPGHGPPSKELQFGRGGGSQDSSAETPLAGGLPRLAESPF

Row | EC50 | relative activity | Binder
1 | 0.086 nM | 497% | B1
2 | 0.952 nM | 17.3% | B2
3 | 0.149 nM | 131% | B3
4 | 0.15 nM | 269% | B4
5 | 2.27 nM | 16.8% | B5

Molecular target: GLP-1 receptor (UniProt P43220 24-463, limits assumed)
Assay: cell-based or functional assay

Row | EC50 | relative activity | Binder
6 | 1.48 nM | 4.53% | B1
7 | 4.07 nM | 1.12% | B2
8 | 0.068 nM | 49.6% | B3
9 | 0.16 nM | 36.8% | B4
10 | 0.036 nM | 142% | B5

Molecular target: T1, GIP receptor
Assay: cell-based or functional assay

Row | EC50 | relative activity | Binder
11 | 2.63 nM | 1.82% | B1
12 | 2.88 nM | 2.06% | B2
13 | 0.366 nM | 12.8% | B3
14 | 0.747 nM | 10% | B4
15 | 0.48 nM | 18.5% | B5
